Laboratory results from PMC4613507.

Target: GST-N–ezrin (GST-tagged N-terminal ezrin 1–309 aa) (UniProt P15311)
Assay: pull-down

Chain of UniProt P15311 (P15311 1-309): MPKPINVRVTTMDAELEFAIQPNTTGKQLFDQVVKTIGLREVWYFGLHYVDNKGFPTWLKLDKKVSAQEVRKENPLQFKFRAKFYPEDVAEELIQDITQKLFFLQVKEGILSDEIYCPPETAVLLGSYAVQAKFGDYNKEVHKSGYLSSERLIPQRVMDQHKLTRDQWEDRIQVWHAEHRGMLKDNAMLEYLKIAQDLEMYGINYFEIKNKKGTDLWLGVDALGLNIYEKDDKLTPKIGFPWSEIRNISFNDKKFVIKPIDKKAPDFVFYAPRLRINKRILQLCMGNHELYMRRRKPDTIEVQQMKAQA

- fold higher ezrin-binding affinity than NHERF1–C127: 4 to 8 fold
Substance: His6–thioredoxin fused NHERF2–C109 (domain or fragment)
